Measurements taken from the DeepSol protein solubility set.

Test: soluble on expression in E. coli; label from the status in PepcDB or PDB records

Row | Sequence | soluble on expression in E. coli
1 | MSLQCALYDAGRCRSCQWITQPIPEQLSAKTADLKNLLADFPVEEWCAPVSGPEQGFRNKAKMVVSGSVEKPLLGMLHRDGTPEDLCDCPLYPASFAPVFAALKPFIARAGLTPYNVARKRGELKYILLTESQSDGGMMLRFVLRSETKLAQLRKALPWLQAQLPQLKVITVNIQPVHMAIMEGETEIYLTEQQALVERFNDVPLWIRPQSFFQTNPAVASQLYATARDWVRQLPVKHMWDLFCGVGGFGLHCATPDMQLTGIEIALEAIACAKQSAAELGLTRLQFQALDSTQFATAQGEVPELVLVNPPRRGIGKPLCDYLSTMAPRFIIYSSCNAQTMAKDIRELPGYRIERVQLFDMFPHTAHYEVLTLLVKMEGHHHHHH | soluble
2 | MSLQDTWGGKMNTLGDRVLLCNDKRSLPAAAVATPFLFESMLFSVCTRGYARLLIDSREIEVKEGELLVVMPRKTIEVIESSCFRAFHLCLDKEILALSAIRISGFISIINKLHSNEPFRPERMEKDFLTATLDLIRNALQNGGRHQEEIVIYLISSLFLFLDDMIADEVEKDCKHTRSETICRDFLLLVSEHHKEQHTVKFYADRLCLSSKHLALTIKTVMGQSASKVINSFIIQQAKSLLRYTDKTVQEIGYELNFSTQSFFGKYFKQHTGMSPGEYRSQEARNRQSEES | not soluble
3 | MSLQGLWIYPEDTEVLGVACKSLLKALTPRYQKVALFSPISGGCESLEECESLNPLEFHSAISKQKALELASTAQEELLFETILKRYDELQSTHDFVINLGCAPKFFLNAPLDLNTILAKHLNASVVAVAQTSLEYLKAMHSHILKKEAPFAVGLFAGETLEKPHFLSMSLCKQQCELEADLIESVLQIKSEIITPLAFQRGLEKKAKKQIKKVVLPESEKMKGFEGHHHHHH | not soluble
4 | MSLQGQIDIPLDIVGRWQADQSAYELAKTYYWAKVAHLAEHNDQLAQPTYEGAHLADISEINNAPATARRMLVVSSDLFRAQQTAHAFADLMGLDVELDPRLRERSFGEWEGMTREEICEHYADDYHSWRAHTGGETKHGVESRIHTGRRGAEAVRDIVAKHHDETMPTTLLLVGHGSWIVATVAVLLDMDPDDLNNVGAMRNAFWTRMTPHTDPRNADRPTWKLEEFNQGPAIASEGHHHHHH | soluble
5 | MSLQIMLCAISNIASGNCSEDCKYCTQSAHVKTDIQKYRRKELSQIVLEAKMAKKNEALGFCLVTAGLGLDDEKLEYVCEAAKAVQKEVPNLLLIACNGMASVEQLKELKKAGIFSYNHNLESSKEFFPQICTTHTWESRFQTNLNAKEAGLMLCCGGIYGMGESEEDRLSFRKSLQELQPFSTPINFFIANENLKLQVPRLSADEALKIVRDTKEALPQSVVMVAGGREVVLRERQYEIFQAGAGAIVIGDYLTTKGEEPSQDIIKLKEMGFTFASECHEGHHHHHH | not soluble
6 | MSLQISPETQLFIREHQTDDVRALALQARKYPNVDMPTAITQIAGRQVAAEKIPSWRDTDDIWYPKHLSLEQCSSEVTARYKATLLKGNSLTDLTGGFGIDCAFLAARFKSATYVERQQELCEIAAHNFPILNLNHINVKNEDGVSYLQAMSPVDCIFLDPARRNEHGGKTVAISDCEPDVAELEELLLNKAEQVMVKLSPMLDLSLALKELQHVQEVHIISANNECKELLLILGQASAEEISIHCVNLPTRGAQEEQHFVFTREQEQCSECNYTDTLENYLYEPNASLLKAGAFRSIASAFPVKKLHPNSHLYTSDVLVESFPGRAFHIISQCSLNKKELKESLGDLKKANITVRNFPATVAELRKRIKLSEGGDTYLFASTLNNGQKVLIRCEKAEGHHHHHH | soluble
7 | MSLQKLVAIEPVSLVLSAEKALYSFADEVVMYSDIPAGDNEIIARIGDADAVLLSYTSQINRYILERCPNVRYIGMCCSLYSPESANVDIRYANERGITVTGIRDYGDEGVIEYVVSELVRCLHGFGQKPWEGIPREITGLKVGIVGLGKSGGMIADAMKFFGADIAYYARSEKKEAGAKGYRFMPLNELLTWSEVVCCCLNKNTVLLHEAEFKALGNRKILFNTGLSPAWDESSFTRWLEEDNLCFCDTLGALGSTALLTHPHVRCMQVSTGRTRQAFDRLSEKVLANLSEYNGEGHHHHHH | soluble
8 | MSLQLLAEIVTVHTKHPFIIARGGQSEYQVVWVRLIDADGAEGWGEASPSKYYGETADTVMVALQRFAPVLAGADAWSIEAIERELEKAMRWNAAARCAVSAALHDLAARRLGVPLWKMWGLDRQATPISSFTIGIAPDAATLRARVREAAHYPLLKIKLGSSWDREVLRIVREEAPKAQLRVDANAAWTAKQALGMLDVLNEVGVDMLEQPLPPQELAGLRFVRERSNIPVVADESCLVASDIPKLEGIVDGVNIKLAKCGSLREALRMIAVARAHGMRVMCGCMIETTLGIAAAAHFSPLLDDADLDGAALLSDDPFDGPGIPDGRVVLGDAPGLGVTRRAGNEGHHHHHH | soluble
9 | MSLQNFDFNEALKGIQAGKPITGSDGVLAPLIKQLTEAALNAEIQSHLEQSSTSNRRNGYSKKTVKSAAGSFELETPRDRNGEYEPVLVKKHQTKLTAEIDSRILSLFSHGMSYRDIRHHIAEIYQLEVSEATISSITDELIPQLKAWQSRPLDSVYPFVWLDAIHYKVKDEGRYVSKAIYTLLALNTEGKKELIGLYCSESEGANYWLSVLTDLHNRGVQDILIACVDGLKGFPEAINAIFPNTEVQLCVIHQIRNSIRYVASRDQKAFMRDLKPVYKAVNKESAELALDDLEAVWGDQYPAVIKSWRDKWHLLSAYFKYPEAVRKPIYTTNAVEAVHRQFRKLTKTKGAFPNETSLLKLLYVGMLNASAKWTMPIRNWGQTMMQLSIYFPGRLDSVMREGHHHHHH | soluble
10 | MSLQPNTYFLHNILVTGATGFVGSFLCSRLLAEGMSVRGTFLVTENPDSLVKGTEQALIEPIGPATFWGHALAGAGTVIHLAARVHVMRERAADPLKEFRFVNTEGTAHLAREAAKAGVKRFVFMGTIGVNGDNSGDAPYIESSPPYPHNPYSVSKYEAEQLLRQISSETGMEVVIIRAPLVYGPGNPGNFLSLLKAVNGDYGFKTLNFGLKVLPLPLASINNKRSLIYVGNLVDALVTCATHPAAVGQTYLVSDGEDVSTPELIRRTAAALGVPARLFPFPVPLMKLAGKLIDKSAAVNRLTGSLTVDSSKIRRELGWQPPFTMEEGLQETAKWFEKQGEGHHHHHH | soluble
11 | MSLQPSQRVVLSHLVHGGWDEIAHSSLRPEIRGFKRTREVARSLLARRLPIYSAVFTGDCLFGNHPLLRPIGIHMQNVQAGNLLVSSTLVDGTVLNQAVCLMVHEDTEHAIGLMLNRPMQAMAGAITIQGTPQETPKIPRWNAEDLDETSEGDSTIDPSSDSIEHPVSGVPSVVISGDQKDQLAQQLLSGKLANGSSLHFGGPLSGPIVAVHSNRELAEAETGEGIFVAAQRENLEALMKSSDLPYRLIIGHLGWTAEQLENEIEEGIWHRIPATSDLLNSDDAMMWPRMIRRATANSVARWLDTTDVPGSAELNEGHHHHHH | soluble
12 | MSLQRFKFLMYQVVASDLDGTLLSPDHTLSPYAKETLKLLTARGINFVFATGRHHVDVGQIRDNLEIKSYMITSNGARVHDLDGNLIFAHNLDRDIASDLFGVVNDNPEIITNVYRDDEWFMNRHRPEEMRFFKEAVFNYALYEPGLLEPEGVSKVFFTCDSHEKLLPLEQAINARWGDRVNVSFSTLTCLEVMAGGVSKGHALEAVAKKLGYSLQDCIAFGDGMNDAEMLSMAGKGCIMGSAHQRLKDLHPELEVIGTNAEDAVPHYLRKLYLSEGHHHHHH | soluble
13 | MSLQTKQKGLQEVLIAAIKRATNEKTLVSFVKQIDWVDPLLFYAAGKRISFENRCYFADPAQHVIFAGIGSVFTIANSSHKRFQTARDEWEKVKENAFVQRDEYEFGTGPLLFGGFSFDPEKEKTDLWKEFKDTTFSLPAFLLTVKNEKAWLTMNTFVSATDCAETLSNEMISLEEKILGESRCALNGSKLTVISKVEVDPKGWMKAIEKVQDEMKQGNVQKVVLARELKVEMNHSIDSALVLEALRIGQPDCYVFSFDYKGACFLGATPERLIRKEDEKFTSMCLAGSIGHGHSIEESKRNSNALLHDEKNLAEHGYVVNMIRSVLNEHCEYVNIPESPGLLTTKNLIHLYTPVEAKGDASLLTMVEELHPTPALGGTPRLEAMKLIRDVELLDRGLYGAPIGWIDDEGNGEFAVALRCGLLNGEKASLFAGCGIVIDSIPQLEYEETSLKFRPMLGALEELMKEGHHHHHH | soluble
14 | MSLRAPRRSNADGLSENVLKAILEPAAAYMAETQKMKEEGNENGGSENTNIDQRNQLLQQASQRGSIGSFLDTTSLSTCSKRSLHSSRLTLSDSKEFYKTVGCRWIRSVRHGDVSTVKKMLEENSELVNYAPTYGPLALHLAAARSDRSIILLLLAKGAEVDSRDAAGYTCLQLAIRRGNQSLAHFLILQGANIELIDPDGRGIIDYDGWSGEDQRSAEKHFYGKIILRPKAHSFVGSPSSISMKSSKSTRTMRPSSTPNDSMISEYESSNLKRNEKQRSSWMSFFKSHTIFGSNSKS | not soluble
15 | MSLRFITPEKRTIEELRFPTREAADNAVKKIADGLSFDDLVKAENKTLNDIKKGPFTENELPSYLSSEIFELKQGQISAVINDLQGPVIIRVTDITPAGPIPFEKVEDNIRQTLAQNRAADDIRNSYTEIENARFEGASEGHHHHHH | soluble
16 | MSLRHGIQAVFLIEKISKCNSLESLSLLVKERQAVFEAMIESHLPANVIGQVLMMIYDAFTCRLIKLAERNVGLPPCNYAWLAAGSHARGEVHLGSDQDNALVLDDSATESDRIYFRHFAMYICKGLAECGYPLCNGRFMAATPKWNQPLFIWKQLYRKWANNPEYNMLLNLNVFLEVRFISGDRSLFDELNSERERCTKNNPHLIAALVRNLISHRPPLGIFNNLVLENNGHNEKSLNIKKSAIGLLVDIARIYALHKGGGMLSTEERFDFAYDRGLINSTSHQDLIGTYRYVTQLRYSHQLQCLQGGKPVTNAIFPEHFGSFERQHLKDAFRIIRGYQDTLKMKFGSEGHHHHHH | soluble
17 | MSLRIADKTVTRAILERHGFTFKKSFGQNFLTDTNILQKIVDTAEIDKGVNVIEIGPGIGALTEFLAENAAEVMAFEIDDRLIPILADTLARFDNVQVVNQDILKADLQTQIQAFKNPDLPIKVVANLPYYITTPILMHLIESKIPFAEFVVMIQKEVADRISAMPNTKAYGSLSIAVQYYMTAKVSFIVPRTVFVPAPNVDSAILKMVRRDQPVVSVQDEDFFFRVSKVAFVHRRKTLWNNLTSHFGKSEDTKAKLEKALEIAKIKPSIRGEALSIPDFASLADALKEVGIEGHHHHHH | soluble
18 | MSLRIGIVGVGFSEFRIHEEPFYNVAFLAAKRALEDAGIERGEVDSFILGGYDNLGVGRTISNMYTAPAAGAYLRHEIRVSDDALFALPLAFMKVKSGSEITMLLAFGHSSETPIELVELQSLDPFFHRPFNLSLPVFFAMQSYAYRERYGVKEEKIAEVVVRMREKGAKNPRAYIREKVSVEDVLSSEVVSSPLRRLEMAEWCDGCVAFILAEETVARRLSDSPVWVSGLGWSAENYYFDRSLHDLPFVAKSAEMAFKMSGKERKDVEALEISDLTADYYCMILEALGFAETGRGWEFNGDVNFSGGALCTNAYGSTGAFLLASIVERIRKGEIECGMAQSMSGYAQKSCVAILEGEGHHHHHH | soluble
